Measurements taken from publication PMC4239116, “Crystal Structure of Cytomegalovirus IE1 Protein Reveals Targeting of TRIM Family Member PML via Coiled-Coil Interactions” (PLoS Pathogens, 2014).

What was measured:
[1] = target: rhIE1(36-395), core domain of rhesus cytomegalovirus IE1, lysine-methylated (rhesus cytomegalovirus (rhesus macaque CMV)); assay: crystal structure; rhIE1(36-395), lysine-methylated; hanging drop, 0.4 M magnesium formate, 15% (w/v) PEG 3350; monoclinic P2_1 crystals and, after controlled dehydration, tetragonal P4_3 crystals (2.3 Å)
[2] = target: the molecule itself; assay: SEC; Superdex 200 prepgrade; 25 mM Tris, 150 mM NaCl, 10 mM DTT, pH 7.5; calibrated with the Bio-Rad gel filtration standard

rhIE1(36-395), core domain of rhesus cytomegalovirus IE1, lysine-methylated (domain or fragment)
stoichiometry N [1]: 2

B1: hIE1_(CORE)(14-382), recombinant (domain or fragment)
chain: PDEGPSSKVPRPETPVTKATTFLQTMLRKEVNSQLSLGDPLFPELAEESLKTFEQVTEDCNENPEKDVLAELVKQIKVRVDMVRHRIKEHMLKKYTQTEEKFTGAFNMMGGCLQNALDILDKVHEPFEEMKCIGLTMQSMYENYIVPEDKREMWMACIKELHDVSKGAANKLGGALQAKARAKKDELRRKMMYMCYRNIEFFTKNSAFPKTTNGCSQAMAALQNLPQCSPDEIMAYAQKIFKILDEERDKVLTHIDHIFMDILTTCVETMCNEYKVTSDACMMTMYGGISLLSEFCRVLCCYVLEETSVMLAKRPLITKPEVISVMKRRIEEICMKVFAQYILGADPLRVCSPSVDDLRAIAEESDEEE
notes: also called hIE1(14-382); source: E. coli BL21(DE3), purified (glutathione sepharose, PreScission cleavage, SEC)
binding result [2]: binds
